We go through two molecules from patent US20180236026.

Data set [1] has as its system synthetic purified T1A peptide.
Data set [2] concerns the target T1, synthetic purified T1A peptide.
T1 chain: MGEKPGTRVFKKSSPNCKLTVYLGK

With MKK7 (purified), in data set [1], the “optimal T1A concentration for JNK3 phosphorylation by MKK7, against full-length arrestin-3” value was “in both cases optimal T1A concentrations were ˜10-times lower than those of full-length arrestin-3”.

B1: MKK4 (purified) (protein)
chain: MAAPSPSGGGGSGGGSGSGTPGPVGSPAPGHPAVSSMQGKRKALKLNFANPPFKSTARFTLNPNPTGVQNPHIERLRTHSIESSGKLKISPEQHWDFTAEDLKDLGEIGRGAYGSVNKMVHKPSGQIMAVKRIRSTVDEKEQKQLLMDLDVVMRSSDCPYIVQFYGALFREGDCWICMELMSTSFDKFYKYVYSVLDDVIPEEILGKITLATVKALNHLKENLKIIHRDIKPSNILLDRSGNIKLCDFGISGQLVDSIAKTRDAGCRPYMAPERIDPSASRQGYDVRSDVWSLGITLYELATGRFPYPKWNSVFDQLTQVVKGDPPQLSNSEEREFSPSFINFVNLCLTKDESKRPKYKELLKHPFILMYEERAVEVACYVCKILDQMPATPSSPMYVD
As to B1, in data set [2], the “JNK3 phosphorylation by MKK4 as a function of T1A concentration (in vitro kinase assay, purified proteins)” value is “the optimal concentration of T1A for promoting JNK3 phosphorylation by MKK4 is lower than for MKK7-JNK3 module” and the “optimal T1A concentration for JNK3 phosphorylation by MKK4, against full-length arrestin-3” value was “in both cases optimal T1A concentrations were ˜10-times lower than those of full-length arrestin-3”.
